Data taken from patent US20260116963A1 (GENERATE BIOMEDICINES, published 2026).

What was measured:
[1] = target: T1, human IL-13 (human, UniProt P35225 25-146, limits assumed); assay: SPR array (Carterra LSA), antibody captured on anti-human pAb HC30M chip, human IL-13 0.05-100 nM as analyte, 25 C, 1:1 fit
T1 construct: The KinExA antigen was detected with an anti-HIS IgG, so it probably carried a HIS tag; also called Interleukin-13; hIL-13

[2] = target: T1, human IL-13; assay: SPR (Biacore 8K+), antibody captured on anti-human pAb CM4 chip, human IL-13 0.6-10 nM as analyte, 37 C, 1:1 fit
[3] = target: T1, human IL-13; assay: cell-based or functional assay
[4] = target: T1, human IL-13; assay: SPR (Biacore 8K+), antibody captured, human IL-13 as analyte, 37 C; less than 5% decay in 5,400 s, KD estimated

T1 sequence (P35225 other isoform, or with tags, fused parts or gaps limits assumed): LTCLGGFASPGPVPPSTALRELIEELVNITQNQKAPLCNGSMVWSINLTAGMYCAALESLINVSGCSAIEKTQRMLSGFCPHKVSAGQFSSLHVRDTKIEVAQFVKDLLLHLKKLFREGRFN

B1: NB-13 (antibody, human IgG4 S228P, kappa)
heavy: QVTLRESGPALVKPTQTLTLTCTVSGFSLSAYSVNWIRQPPGKALEWLAMIWGDGKIVYNSALKSRLTISKDTSKNQVVLTMTNMDPVDTATYYCAGDGYYPYAMDNWGQGSLVTVSSASTKGPSVFPLAPCSRSTSESTAALGCLVKDYFPEPVTVSWNSGALTSGVHTFPAVLQSSGLYSLSSVVTVPSSSLGTKTYTCNVDHKPSNTKVDKRVESKYGPPCPPCPAPEFLGGPSVFLFPPKPKDTLYITREPEVTCVVVDVSQEDPEVQFNWYVDGVEVHNAKTKPREEQFNSTYRVVSVLTVLHQDWLNGKEYKCKVSNKGLPSSIEKTISKAKGQPREPQVYTLPPSQEEMTKNQVSLTCLVKGFYPSDIAVEWESNGQPENNYKTTPPVLDSDGSFFLYSRLTVDKSRWQEGNVFSCSVMHEALHNHYTQKSLSLSLGK
light: DIVMTQSPDSLSVSLGERATINCRASKSVDSYGNSFMHWYQQKPGQPPKLLIYLASNLESGVPDRFSGSGSGTDFTLTISSLQAEDVAVYYCQQNNEDPRTFGGGTKVEIKRTVAAPSVFIFPPSDEQLKSGTASVVCLLNNFYPREAKVQWKVDNALQSGNSQESVTEQDSKDSTYSLSSTLTLSKADYEKHKVYACEVTHQGLSSPVTKSFNRGEC
[1]
  Kd: < 0.1 nM

B2: NB-3 (antibody, human IgG4 S228P, kappa, V domains shown)
VH: QVTLRESGPALVKPTQTLTLTCTVSGASLSSYSVNWIRQPPGKALEWLAMIWGDGKIVYNSALKSRLTISKDTSKNQVVLTMTNMDPVDTATYYCAGEGYYPYAMDVWGQGSLVTVSS
VL: DIVMTQSPDSLSVSLGERATINCRASKSVDSYGNSYMHWYQQKPGQPPKLLIYLASNLESGVPDRFSGSGSGTDFTLTISSLQAEDVAVYYCQQNNEDPRTFGGGTKVEIKR
[1]
  Kd: 1.89 nM
  koff: 0.00047 s⁻¹
  kon: 290000 M⁻¹ s⁻¹

B3: NB-4 (antibody, human IgG4 S228P, kappa, V domains shown)
VH: QVTLRESGPALVKPTQTLTLTCTVSGASLSAYSVNWIRQPPGKALEWLAMIWGDGKIVYNSALKSRLTISKDTSKNQVVLTMTNMDPVDTATYYCAGDGYYPYAMDNWGQGSLVTVSS
VL: DIVMTQSPDSLSVSLGERATINCRASKSVDSYGNSFMHWYQQKPGQPPKLLIYLASNLESGVPDRFSGSGSGTDFTLTISSLQAEDVAVYYCQQNNEDPLTFGGGTKVEIKR
[1]
  Kd: 13.6 nM
  koff: 0.000987 s⁻¹
  kon: 74000 M⁻¹ s⁻¹

B4: NB-9 (antibody, human IgG4 S228P, kappa, V domains shown)
VH: QVTLRESGPALVKPTQTLTLTCTVSGFSLSAYSVNWIRQPPGKALEWLAMIWGSGKIVYNSALKSRLTISKDTSKNQVVLTMTNMDPVDTATYYCAGDGYYPYAMDNWGQGSLVTVSS
VL: DIVMTQSPDSLSVSLGERATINCRASKSVDSYGNSFMHWYQQKPGQPPKLLIYLASNLESGVPDRFSGSGSGTDFTLTISSLQAEDVAVYYCQQNNEDPRTFGGGTKVEIKR
[1]
  Kd: 2.41 nM
  koff: 0.000734 s⁻¹
  kon: 305000 M⁻¹ s⁻¹

B5: NB-11 (antibody, human IgG4 S228P, kappa, V domains shown)
VH: QVTLRESGPALVKPTQTLTLTCTVSGASLSAYSVNWIRQPPGKALEWLAMIWGDGTIVYNSALKSRLTISKDTSKNQVVLTMTNMDPVDTATYYCAGDGYFPYAMDNWGQGSLVTVSS
VL: DIVMTQSPDSLSVSLGERATINCRASKSVDSYGHSFMHWYQQKPGQPPKLLIYLASNLESGVPDRFSGSGSGTDFTLTISSLQAEDVAVYYCQQNNEDPRTFGGGTKVEIKR
[1]
  Kd: 0.97 nM
  koff: 0.000135 s⁻¹
  kon: 139000 M⁻¹ s⁻¹

B6: NB-6 (antibody, human IgG4 S228P, kappa, V domains shown)
VH: QVTLRESGPALVKPTQTLTLTCTVSGASLSAYSVNWIRQPPGKALEWLAMISGDGKIVYNSALKSRLTISKDTSKNQVVLTMTNMDPVDTATYYCAGDGYYPYAMDNWGQGSLVTVSS
VL: DIVMTQSPDSLSVSLGERATINCRASKSVDSYGNSFMHWYQQKPGQPPKLLIYLASNLESGVPDRFSGSGSGTDFTLTISSLQAEDVAVYYCQQNNEDPRTFGGGTKVEIKR
[1]
  Kd: 3.34 nM
  koff: 0.000855 s⁻¹
  kon: 258000 M⁻¹ s⁻¹

B7: NB-7 (antibody, human IgG4 S228P, kappa, V domains shown)
VH: QVTLRESGPALVKPTQTLTLTCTVSGFSLSAYSVNWIRQPPGKALEWLAMIWGDGKIVYNSALKSRLTISKDTSKNQVVLTMTNMDPVDTATYYCAGDGYYPYAMDNWGQGSLVTVSS
VL: DIVMTQSPDSLSVSLGERATINCRASKSVDSYGNSFMHWYQQKPGQPPKLLIYLASNLESGVPDRFSGSGSGTDFTLTISSLQAEDVAVYYCQQNNEDPLTFGGGTKVEIKR
[1]
  Kd: 8.35 nM
  koff: 0.000827 s⁻¹
  kon: 100000 M⁻¹ s⁻¹

B8: NB-2 (antibody, human IgG4 S228P, kappa, V domains shown)
VH: QVTLRESGPALVKPTQTLTLTCTVSGFSLSAYSVNWIRQPPGKALEWLAMIWGDGKIVYNSALKSRLTISKDTSKNQVVLTMTNMDPVDTATYYCAGLGYYPYAMDNWGQGSLVTVSS
VL: DIVMTQSPDSLSVSLGERATINCRASKSVDSYGNSFMHWYQQKPGQPPKLLIYLASNLESGVPDRFSGSGSGTDFTLTISSLQAEDVAVYYCQQNNEDPRTFGGGTKVEIKR
[1]
  Kd: 6.67 nM
  koff: 0.000618 s⁻¹
  kon: 93000 M⁻¹ s⁻¹

B9: NB-12 (antibody, human IgG4 S228P, kappa, V domains shown)
VH: QVTLRESGPALVKPTQTLTLTCTVSGASLSAYSVNWIRQPPGKALEWLAMIWGDGKIVYNSALKSRLTISKDTSKNQVVLTMTNMDPVDTATYYCAGDGYYPWAMDNWGQGSLVTVSS
VL: DIVMTQSPDSLSVSLGERATINCRASQSVDSYGNSFMHWYQQKPGQPPKLLIYLASNLESGVPDRFSGSGSGTDFTLTISSLQAEDVAVYYCQQNNEDPRTFGGGTKVEIKR
[1]
  Kd: 6.09 nM
  koff: 0.000711 s⁻¹
  kon: 117000 M⁻¹ s⁻¹

B10: NB-10 (antibody, human IgG4 S228P, kappa, V domains shown)
VH: QVTLRESGPALVKPTQTLTLTCTVSGASLSAYSVNWIRQPPGKALEWLAMIWGDGKIVYNSALKSRLTISKDTSKNQVVLTMTNMDPVDTATYYCAGDGYYPYAMDNWGQGSLVTVSS
VL: DIVMTQSPDSLSVSLGERATINCRASKSVDYYGNSFMHWYQQKPGQPPKLLIYLASNLESGVPDRFSGSGSGTDFTLTISSLQAEDVAVYYCQQNNEDPLTFGGGTKVEIKR
[1]
  Kd: 13.6 nM
  koff: 0.000805 s⁻¹
  kon: 62000 M⁻¹ s⁻¹

B11: NB-8 (antibody, human IgG4 S228P, kappa, V domains shown)
VH: QVTLRESGPALVKPTQTLTLTCTVSGASLSAYSVNWIRQPPGKALEWLAMIWGDGKIVYNSALKSRLTISKDTSKNQVVLTMTNMDPVDTATYYCAGEGYYPYAMDYWGQGSLVTVSS
VL: DIVMTQSPDSLSVSLGERATINCRASKSVDSYGNSFMHWYQQKPGQPPKLLIYLASNLESGVPDRFSGSGSGTDFTLTISSLQAEDVAVYYCQQNNEDPRTFGGGTKVEIKR
[1]
  Kd: 2.56 nM
  koff: 0.000674 s⁻¹
  kon: 259000 M⁻¹ s⁻¹

B12: NB-5 (antibody, human IgG4 S228P, kappa, V domains shown)
VH: QVTLRESGPALVKPTQTLTLTCTVSGASLSAYSVNWIRQPPGKALEWLAMIWGSGKIVYNSALKSRLTISKDTSKNQVVLTMTNMDPVDTATYYCAGDGYYPYAMDNWGQGSLVTVSS
VL: DIVMTQSPDSLSVSLGERATINCRASKSVDSYGNSFMHWYQQKPGQPPKLLIYLASNLESGVPDRFSGSGSGTDFTLTISSLQAEDVAVYYCQQNNEDPRTFGGGTKVEIKR
[1]
  Kd: 4.24 nM
  koff: 0.00127 s⁻¹
  kon: 303000 M⁻¹ s⁻¹

B13: NB-1 (antibody, human IgG4 S228P, kappa, V domains shown)
VH: QVTLRESGPALVKPTQTLTLTCTVSGASLSAYSVNWIRQPPGKALEWLAMIWGDGKIVYNSALKSRLTISKDTSKNQVVLTMTNMDPVDTATYYCAGLGYYPYAMDLWGQGSLVTVSS
VL: DIVMTQSPDSLSVSLGERATINCRASKSVDSYGNSFMHWYQQKPGQPPKLLIYLASNLESGVPDRFSGSGSGTDFTLTISSLQAEDVAVYYCQQNNEDPRTFGGGTKVEIKR
[1]
  Kd: 5.21 nM
  koff: 0.000601 s⁻¹
  kon: 117000 M⁻¹ s⁻¹

B14: AbA (antibody, human IgG1, kappa, V domains shown)
VH: QVTLRESGPALVKPTQTLTLTCTVSGFSLSAYSVNWIRQPPGKALEWLAMIWGDGKIVYNSALKSRLTISKDTSKNQVVLTMTNMDPVDTATYYCAGDGYYPYAMDNWGQGSLVTVSS
VL: DIVMTQSPDSLSVSLGERATINCRASKSVDSYGRSYMHWYQQKPGQPPKLLIYLASNLESGVPDRFSGSGSGTDFTLTISSLQAEDVAVYYCQQNNEDPRTFGGGTKVEIKR
[2]
  Kd: 0.0162 nM
  koff: 1.11e-05 s⁻¹
  kon: 847000 M⁻¹ s⁻¹
[3]
  IC50, HEK-Blue IL-13Ra1/IL-4Ra STAT6-SEAP reporter assay: 0.123 µg/mL

B15: AbC (antibody, human IgG1, kappa, V domains shown)
VH: QVTLRESGPALVKPTQTLTLTCTVSGFSLSAYSVNWIRQPPGKALEWLAMIWGDGKIVYNSALKSRLTISKDTSKNQVVLTMTNMDPVDTATYYCAGDGYYPYAMDYWGQGSLVTVSS
VL: DIVMTQSPDSLSVSLGERATINCRASKSVDYYGNSYMHWYQQKPGQPPKLLIYLASNLESGVPDRFSGSGSGTDFTLTISSLQAEDVAVYYCQQNNEDPRTFGGGTKVEIKR
[2]
  Kd: 0.0273 nM
  koff: 2.98e-05 s⁻¹
  kon: 1.09e+06 M⁻¹ s⁻¹
[3]
  IC50, HEK-Blue IL-13Ra1/IL-4Ra STAT6-SEAP reporter assay: 0.118 µg/mL

B16: AbB (antibody, human IgG1, kappa, V domains shown)
VH: QVTLRESGPALVKPTQTLTLTCTVSGASLSAYSVNWIRQPPGKALEWLAMIWGDGKIVYNSALKSRLTISKDTSKNQVVLTMTNMDPVDTATYYCAGDGYYPYAMDNWGQGSLVTVSS
VL: DIVMTQSPDSLSVSLGERATINCRASKSVDYYGHSYMHWYQQKPGQPPKLLIYLASNLESGVPDRFSGSGSGTDFTLTISSLQAEDVAVYYCQQNNEDPRTFGGGTKVEIKR
[2]
  Kd: 0.0215 nM
  koff: 1.02e-05 s⁻¹
  kon: 552000 M⁻¹ s⁻¹
[3]
  IC50, HEK-Blue IL-13Ra1/IL-4Ra STAT6-SEAP reporter assay: 0.132 µg/mL

B17: AbD (antibody, human IgG1, kappa, V domains shown)
VH: QVTLRESGPALVKPTQTLTLTCTVSGSSLSAYSVNWIRQPPGKALEWLAMIWGDGKVVYNSALKSRLTISKDTSKNQVVLTMTNMDPVDTATYYCAGDGYFPYAMDNWGQGSLVTVSS
VL: DIVMTQSPDSLSVSLGERATINCRASKSVDSYGNSYMHWYQQKPGQPPKLLIYLASNLESGVPDRFSGSGSGTDFTLTISSLQAEDVAVYYCQQNNEDPRTFGGGTKVEIKR
[4]
  Kd: < 0.015 nM
[3]
  IC50, HEK-Blue IL-13Ra1/IL-4Ra STAT6-SEAP reporter assay: 0.161 µg/mL
